Source: article PMC3163529

Molecular target: recombinant human PKA catalytic subunit Cα2 (human) (UniProt P17612)
Test: SPR; C subunits amine-coupled to CM5 chip (about 300 RU), R subunits injected at 30 μl/min; 25°C; 20 mM MOPS pH 7, 150 mM NaCl, 1 mM ATP, 5 mM MgCl2, 50 μM EDTA, 0.005% P20; Langmuir 1:1 model; Biacore 2000 or 3000

Kd: 0.9 nM
kon: 900000 M⁻¹ s⁻¹
Substance: recombinant human PKA regulatory subunit RIIβ (from UniProt P31323 1-418) (natural protein; other documents disagree on this pair)
